System: peptide library, one residue held at a place counted from the S/T acceptor
Assay: relative phosphorylation of the sub-library (ratio to the mean residue at this position); human; higher = residue favoured
How it was run: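 Relative sub-library phosphorylation is a ratio to the mean residue at the same position. Purified recombinant kinases were incubated under kinase-specific conditions with biotinylated degenerate peptide sub-libraries, each fixing one residue at one position around a central Ser/Thr, using 50 μM peptide and 50 μM ATP spiked with γ-32P-ATP for 90 min. Spots captured on streptavidin membranes were phosphorimaged and quantified by densitometry.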

Chain of MOK, construct: aa1-343 (Q9UQ07 1-343, looked up): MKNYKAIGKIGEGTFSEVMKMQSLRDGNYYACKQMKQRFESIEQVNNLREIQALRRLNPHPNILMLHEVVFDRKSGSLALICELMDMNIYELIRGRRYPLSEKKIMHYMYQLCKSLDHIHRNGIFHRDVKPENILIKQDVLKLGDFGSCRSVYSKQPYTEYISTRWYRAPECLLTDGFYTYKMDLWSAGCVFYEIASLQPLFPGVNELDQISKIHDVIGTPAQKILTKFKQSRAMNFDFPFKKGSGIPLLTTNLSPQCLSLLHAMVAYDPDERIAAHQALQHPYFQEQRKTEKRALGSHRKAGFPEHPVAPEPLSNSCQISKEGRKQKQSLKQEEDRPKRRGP
Chain of MASTL, construct: Full length (Q96GX5 whole entry, looked up): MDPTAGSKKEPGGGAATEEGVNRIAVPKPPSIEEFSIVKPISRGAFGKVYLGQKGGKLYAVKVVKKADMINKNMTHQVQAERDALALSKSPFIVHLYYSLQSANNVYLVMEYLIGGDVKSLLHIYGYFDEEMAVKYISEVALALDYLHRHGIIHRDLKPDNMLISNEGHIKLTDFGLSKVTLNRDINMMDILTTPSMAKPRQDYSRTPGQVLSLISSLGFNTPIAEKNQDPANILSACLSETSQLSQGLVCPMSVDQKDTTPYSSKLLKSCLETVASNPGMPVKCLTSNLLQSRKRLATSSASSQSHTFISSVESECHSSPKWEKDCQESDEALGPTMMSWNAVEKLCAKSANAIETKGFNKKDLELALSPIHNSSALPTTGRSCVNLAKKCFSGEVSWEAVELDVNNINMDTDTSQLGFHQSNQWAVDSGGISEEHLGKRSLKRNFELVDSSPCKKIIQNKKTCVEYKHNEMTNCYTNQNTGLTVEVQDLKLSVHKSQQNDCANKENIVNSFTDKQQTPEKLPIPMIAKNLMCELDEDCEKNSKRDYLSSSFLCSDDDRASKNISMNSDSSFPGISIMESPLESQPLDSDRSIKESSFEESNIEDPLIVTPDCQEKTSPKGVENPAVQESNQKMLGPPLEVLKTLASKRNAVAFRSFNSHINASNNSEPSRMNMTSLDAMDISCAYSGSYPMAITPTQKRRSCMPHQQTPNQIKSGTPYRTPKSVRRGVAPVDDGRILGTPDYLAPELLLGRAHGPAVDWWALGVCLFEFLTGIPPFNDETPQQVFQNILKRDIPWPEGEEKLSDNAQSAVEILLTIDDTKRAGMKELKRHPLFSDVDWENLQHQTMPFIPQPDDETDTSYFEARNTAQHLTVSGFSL
Chain of MELK, construct: aa1-340 (Q14680 1-340, looked up): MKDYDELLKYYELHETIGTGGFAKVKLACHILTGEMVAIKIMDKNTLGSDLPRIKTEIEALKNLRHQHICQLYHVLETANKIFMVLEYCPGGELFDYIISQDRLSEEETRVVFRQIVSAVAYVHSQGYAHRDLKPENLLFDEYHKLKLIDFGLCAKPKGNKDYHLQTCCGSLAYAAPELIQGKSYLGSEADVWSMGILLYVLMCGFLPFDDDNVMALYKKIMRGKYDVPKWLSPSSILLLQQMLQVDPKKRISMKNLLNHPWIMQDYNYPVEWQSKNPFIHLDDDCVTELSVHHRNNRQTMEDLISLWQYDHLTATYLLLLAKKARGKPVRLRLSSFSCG

MASTL, construct: Full length (from UniProt Q96GX5)
relative phosphorylation
Details | at +1 | at +2 | at +3 | at +4 | at -1 | at -2 | at -3 | at -4 | at -5
A fixed | 0.775 | 1.04 | 0.823 | 1.03 | 0.921 | 0.862 | 0.89 | 1.04 | 1.22
D fixed | 0.64 | 0.706 | 0.711 | 0.972 | 0.826 | 0.719 | 0.63 | 0.69 | 0.66
E fixed | 0.62 | 0.693 | 0.766 | 0.951 | 0.769 | 0.611 | 0.679 | 0.717 | 0.639
F fixed | 1.95 | 1.38 | 1.3 | 0.962 | 0.948 | 1.74 | 1.13 | 1.02 | 1
G fixed | 1.59 | 0.711 | 1.14 | 0.867 | 1.46 | 1.13 | 1.02 | 1.2 | 1.28
H fixed | 0.772 | 0.99 | 0.949 | 1.07 | 1.01 | 1.51 | 1.43 | 1.31 | 1.47
I fixed | 1.21 | 1.23 | 1.19 | 0.878 | 0.543 | 0.585 | 0.66 | 0.696 | 0.841
K fixed | 0.534 | 0.531 | 0.573 | 0.841 | 0.87 | 0.579 | 0.927 | 0.956 | 0.889
L fixed | 1.06 | 0.959 | 1.1 | 0.941 | 1.06 | 0.579 | 0.715 | 0.656 | 0.941
M fixed | 1.71 | 1.15 | 1.15 | 1.02 | 1.25 | 0.846 | 1 | 0.938 | 0.94
N fixed | 0.789 | 0.95 | 0.749 | 1.05 | 1.06 | 1.16 | 1.03 | 1.34 | 1.05
P fixed | 0.664 | 0.65 | 0.704 | 1.31 | 1.59 | 0.804 | 1.01 | 0.965 | 1.07
Q fixed | 1.09 | 0.761 | 0.804 | 1.09 | 1.15 | 0.839 | 0.985 | 0.913 | 0.841
R fixed | 0.614 | 0.579 | 0.555 | 0.726 | 0.889 | 0.767 | 1.55 | 1 | 0.953
V fixed | 0.944 | 1.16 | 0.875 | 0.831 | 0.649 | 0.558 | 0.678 | 0.703 | 0.909
W fixed | 1.03 | 1.6 | 2.11 | 1.28 | 0.913 | 1.82 | 1.23 | 1.35 | 1.27
Y fixed | 1.01 | 1.9 | 1.5 | 1.18 | 1.1 | 1.9 | 1.42 | 1.49 | 1.03
pThr fixed | 1 | 0.912 | 0.984 | 1.27 | 0.833 | 0.827 | 0.939 | 0.844 | 0.94
pTyr fixed | 0.8 | 1.07 | 0.973 | 0.944 | 0.711 | 0.771 | 0.812 | 0.834 | 0.784

MELK, construct: aa1-340 (from UniProt Q14680)
relative phosphorylation
Details | at +1 | at +2 | at +3 | at +4 | at -1 | at -2 | at -3 | at -4 | at -5
A fixed | 1.02 | 0.961 | 0.744 | 0.748 | 0.777 | 1.24 | 0.757 | 1.12 | 0.927
D fixed | 0.349 | 0.324 | 0.902 | 0.634 | 0.495 | 0.251 | 0.225 | 0.47 | 0.446
E fixed | 0.447 | 0.274 | 0.436 | 0.558 | 0.469 | 0.305 | 0.256 | 0.658 | 0.392
F fixed | 2.31 | 0.923 | 1.21 | 0.987 | 0.78 | 1.07 | 0.478 | 0.674 | 1.18
G fixed | 0.949 | 0.79 | 0.855 | 1.02 | 0.711 | 0.78 | 0.707 | 1.24 | 0.884
H fixed | 0.994 | 1.02 | 1.47 | 1.04 | 1.25 | 1.33 | 1.18 | 1.11 | 0.871
I fixed | 0.511 | 1.64 | 0.77 | 1.26 | 0.783 | 0.667 | 0.347 | 0.669 | 1.13
K fixed | 1.38 | 0.858 | 0.938 | 1.03 | 1.89 | 1.63 | 2.74 | 2.08 | 1.49
L fixed | 0.752 | 1.79 | 1.02 | 1.84 | 1.07 | 0.681 | 0.454 | 0.761 | 1.76
M fixed | 1.14 | 1.68 | 0.986 | 1.1 | 1.1 | 0.951 | 0.484 | 0.903 | 1.22
N fixed | 0.837 | 0.873 | 1.48 | 0.988 | 1.19 | 1.09 | 0.742 | 1.02 | 0.711
P fixed | 0.171 | 0.598 | 0.553 | 1.23 | 1.07 | 0.419 | 0.751 | 1.01 | 1.03
Q fixed | 1.54 | 0.723 | 1.05 | 0.952 | 1.12 | 1.42 | 0.784 | 0.844 | 0.902
R fixed | 1.72 | 1.28 | 1.12 | 1.03 | 1.71 | 1.79 | 5.37 | 1.81 | 1.67
V fixed | 0.705 | 1.54 | 0.79 | 1.05 | 0.885 | 0.893 | 0.394 | 0.701 | 0.814
W fixed | 0.959 | 0.808 | 1.69 | 0.848 | 0.601 | 1.15 | 0.676 | 1.1 | 0.766
Y fixed | 1.22 | 0.935 | 1 | 0.673 | 1.09 | 1.33 | 0.653 | 0.831 | 0.806
pThr fixed | 0.647 | 0.364 | 0.33 | 0.662 | 0.311 | 0.354 | 0.33 | 0.438 | 0.508
pTyr fixed | 0.551 | 0.407 | 0.409 | 0.425 | 0.709 | 0.295 | 0.332 | 0.382 | 0.517

MKNK1, construct: Full length (D165-205) (from UniProt Q9BUB5)
relative phosphorylation
Details | at +1 | at +2 | at +3 | at +4 | at -1 | at -2 | at -3 | at -4 | at -5
A fixed | 0.571 | 0.643 | 0.663 | 0.758 | 0.958 | 0.862 | 0.744 | 0.882 | 1.25
D fixed | 0.289 | 0.373 | 0.434 | 0.925 | 0.355 | 0.324 | 0.281 | 0.361 | 0.43
E fixed | 0.603 | 0.351 | 0.429 | 0.903 | 0.342 | 0.279 | 0.315 | 0.37 | 0.404
F fixed | 1.41 | 0.677 | 0.771 | 0.706 | 0.395 | 0.433 | 0.392 | 0.676 | 0.727
G fixed | 0.464 | 0.534 | 1.49 | 0.967 | 1.12 | 0.736 | 1.22 | 1.3 | 0.945
H fixed | 0.892 | 1.83 | 1.23 | 1.13 | 0.897 | 0.748 | 1.04 | 1.12 | 0.866
I fixed | 1.05 | 0.875 | 0.597 | 0.687 | 0.304 | 0.372 | 0.286 | 0.625 | 1
K fixed | 1.04 | 1.03 | 2.18 | 1.82 | 3.23 | 2.45 | 3.62 | 2.16 | 1.58
L fixed | 0.991 | 0.907 | 1.01 | 0.722 | 0.602 | 0.519 | 0.394 | 0.751 | 1.2
M fixed | 1.86 | 0.997 | 0.886 | 0.805 | 0.619 | 0.395 | 0.494 | 0.784 | 0.97
N fixed | 0.651 | 0.817 | 0.725 | 1.12 | 0.905 | 1.03 | 0.96 | 1.07 | 0.872
P fixed | 0.345 | 0.387 | 0.806 | 1.3 | 1.87 | 0.55 | 1.4 | 1.28 | 1.25
Q fixed | 1.8 | 0.794 | 0.856 | 1.29 | 0.991 | 0.747 | 0.926 | 0.83 | 0.762
R fixed | 1.34 | 1.9 | 1.95 | 1.49 | 2.91 | 5.62 | 3.5 | 2.25 | 1.66
V fixed | 0.995 | 0.781 | 0.506 | 0.704 | 0.429 | 0.521 | 0.318 | 0.76 | 1.25
W fixed | 1.2 | 1.79 | 1.17 | 0.826 | 0.414 | 0.685 | 0.549 | 0.894 | 0.832
Y fixed | 1.49 | 2.32 | 1.3 | 0.845 | 0.655 | 0.725 | 0.557 | 0.891 | 1.01
pThr fixed | 0.668 | 0.629 | 0.564 | 1.11 | 0.278 | 0.387 | 0.511 | 0.639 | 0.677
pTyr fixed | 0.868 | 1.32 | 0.756 | 1.46 | 0.294 | 0.373 | 0.447 | 0.596 | 0.942

MOK, construct: aa1-343 (from UniProt Q9UQ07)
relative phosphorylation
Details | at +1 | at +2 | at +3 | at +4 | at -1 | at -2 | at -3 | at -4 | at -5
A fixed | 2.2 | 1.04 | 1.2 | 0.799 | 1.12 | 1.03 | 0.724 | 0.79 | 0.816
D fixed | 0.137 | 0.59 | 0.511 | 0.519 | 0.269 | 0.168 | 0.231 | 0.441 | 0.526
E fixed | 0.15 | 0.672 | 0.507 | 0.506 | 0.332 | 0.208 | 0.246 | 0.506 | 0.552
F fixed | 0.2 | 0.836 | 1.02 | 0.891 | 0.786 | 0.328 | 0.314 | 0.739 | 1.02
G fixed | 1.23 | 1.51 | 1.52 | 1.34 | 1.36 | 0.824 | 0.645 | 0.89 | 1.04
H fixed | 0.389 | 1.44 | 1.28 | 1.09 | 1.19 | 0.418 | 0.564 | 0.862 | 1.09
I fixed | 0.215 | 0.624 | 0.704 | 0.855 | 0.511 | 0.863 | 0.54 | 0.73 | 0.865
K fixed | 0.574 | 1.15 | 1.15 | 1.44 | 1.61 | 0.8 | 1.27 | 1.43 | 1.36
L fixed | 0.204 | 0.822 | 0.848 | 0.904 | 0.712 | 1.2 | 0.587 | 0.739 | 0.761
M fixed | 0.253 | 0.935 | 0.967 | 1.05 | 1.22 | 0.675 | 0.501 | 0.946 | 0.903
N fixed | 0.32 | 0.999 | 0.93 | 1.06 | 0.672 | 0.498 | 0.452 | 0.628 | 0.784
P fixed | 6.41 | 1.12 | 1.13 | 1.11 | 1.33 | 5.97 | 1.26 | 0.96 | 1.11
Q fixed | 0.567 | 1.21 | 0.857 | 0.964 | 1 | 0.629 | 0.563 | 0.818 | 0.916
R fixed | 3.21 | 1.58 | 1.53 | 1.74 | 2.2 | 1.81 | 7.98 | 4.34 | 2.3
V fixed | 0.515 | 0.551 | 0.668 | 0.801 | 0.631 | 0.918 | 0.441 | 0.622 | 0.622
W fixed | 0.215 | 0.884 | 0.985 | 1.02 | 0.976 | 0.331 | 0.316 | 0.811 | 1.02
Y fixed | 0.21 | 1.04 | 1.19 | 0.921 | 1.08 | 0.323 | 0.377 | 0.745 | 1.31
pThr fixed | 0.333 | 0.394 | 0.486 | 0.512 | 0.236 | 0.431 | 0.358 | 0.532 | 0.775
pTyr fixed | 0.334 | 0.447 | 0.651 | 0.45 | 0.354 | 0.268 | 0.329 | 0.473 | 0.804

Source: the supplement of paper PMC9876800
